The target in series [1] is T1, LAG-3 (lymphocyte activation gene 3) (Homo sapiens, UniProt P18627 P18627:23-450).
T1 sequence: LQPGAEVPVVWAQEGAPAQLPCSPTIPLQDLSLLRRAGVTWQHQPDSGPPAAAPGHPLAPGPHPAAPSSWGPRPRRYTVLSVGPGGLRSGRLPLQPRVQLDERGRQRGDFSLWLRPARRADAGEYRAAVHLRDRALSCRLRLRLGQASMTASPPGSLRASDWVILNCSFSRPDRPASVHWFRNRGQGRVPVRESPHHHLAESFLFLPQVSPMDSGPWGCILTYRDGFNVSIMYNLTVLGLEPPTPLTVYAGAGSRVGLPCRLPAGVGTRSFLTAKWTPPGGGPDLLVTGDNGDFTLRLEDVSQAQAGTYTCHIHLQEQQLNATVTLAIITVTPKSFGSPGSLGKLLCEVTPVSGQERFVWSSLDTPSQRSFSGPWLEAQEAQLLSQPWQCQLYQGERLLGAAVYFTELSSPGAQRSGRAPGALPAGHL
Put plainly: pulldown; His-LAG-3 on nickel beads, qPCR. The note with it: tags: His-tagged, attached to nickel coated beads or plate wells; label: 5'-biotin. The method, then: (§1) To directly test binding of LAG-3 aptamers to LAG-3, in vitro binding assays were performed using His-tagged recombinant LAG-3 attached to nickel coated beads or nickel coated wells of a plate. Bound LAG-3 aptamers were eluted and detected by qPCR. Using the bead based assay, binding of aptamers B4 and B8 to recombinant LAG-3 increased in a concentration dependent manner. FIG. 1C. […] FIG. 1D.
To identify the minimal sequence of aptamer B4 that is involved in binding to LAG-3, various truncated versions of aptamer B4 were prepared and their binding activities to LAG-3 were investigated in the binding assays described herein, using R9R as a negative control. Aptamer sequences of these truncated versions of aptamer B4 and their dissociation constants (Kds) for binding to recombinant LAG-3 are shown in Table 2. Binding of aptamers B4, B4-SL2, B4-SL3, and B4-SL4 to recombinant LAG-3 increased in a concentration dependent manner. FIG. 1E. […] FIG. 1E.
For orientation: In qPCR the cycle at which signal appears reflects the starting amount.

Series [2] has as its target T1, LAG-3 (lymphocyte activation gene 3). The series can be described thus: pulldown; His-LAG-3 on nickel beads, bound aptamer eluted and detected by qPCR. The conditions noted are these: tags: His-tagged, attached to nickel coated beads or plate wells; label: 5'-biotin.
For series [3] the target is unchanged. Put plainly: pulldown; concentration dependent; nickel beads, qPCR. The note with it: tags: His-tagged, attached to nickel coated beads or plate wells. The method, then:
as §1

The Kd is the free concentration of one partner at which half of the binding sites on the other are occupied at equilibrium, for simple one-to-one binding. Low values mean tighter binding, high ones weaker binding.

CTGGGGGGGGTTAGTTCAATACATGCGGGCGGCCA (ssDNA) [5'Bio-B4-SL4] had a Kd in series [1] of 9.47 nM.

B1: 5'Bio-B4 (ssDNA)
DNA: TCCCTACGGCGCTAACTGGGGGGGGTTAGTTCAATACATGCGGGCGGCCACCGTGCTACAAC
B1 registered a Kd in series [2] of 38.1 nM.
In series [1], ACGGCGCTAACTGGGGGGGGTTAGTTCAATACATG (ssDNA) [5'Bio-B4-SL2] displayed a Kd of 8.05 nM.

B2: B8 (ssDNA)
DNA: TCCCTACGGCGCTAACTGGGGGGGGGTTAGACTTACACTCTTATTCGGCCACCGTGCTACAAC
As to B2, in series [3], the binding result is reported as “binds”.
In turn, GCTAACTGGGGGGGGTTAGTTCAATACATGCGGGC (ssDNA) [5'Bio-B4-SL3] returned a Kd in series [1] of 10.7 nM.
